Measured values published in US20260116958A1 (University of California, published 2026).
Where a chain is given by its changes, count along the chain named.

B1: 6G10 IgG (antibody, V domains shown)
VH: EVQLQQSGPELVKPGASVKISCKASGYSFTGYFMHWVKQSHVKSLEWIGRINPYNGDIIYNQNFKDKASLTVDKSSSTAYMELHSLTSEDSAVYYCASLFGLYYFDYWGQGTTLTVSS
VL: EIVLTQSPAIMSASPGEKVTMTCSASSSVSYMHWYQQKSGTSPKRWIYDTSKLASGVPARFSGSGSGTSYSLTISSMEAEDAATYYCQQWSSNPLTFGAGTKLELKR
B2: hu6G6 IgG (antibody, V domains shown)
VH: QVQLVQSGAEVKKPGASVKLSCKASGFNIKDTYMHWVRQAPGQGLEWIGRIDPANGNTKYDPKFQGRATITADTSINTAYLELSRLRSDDTAVYYCASGPNYYGTTWFAYWGQGTTVTVSS
VL: EIVLTQSPSTLSASVGDRVTITCRASHGISNYLAWYQQKPGRAPKLLIYKASTLHIGVPSRFSGSGSGTEFALTISSLQPDDFSTYYCQQYNSYLPHTFGQGTRLEIKR
B3: Hu6G6.2 IgG (antibody, V domains shown)
VH: B2 VH with A54E, D73Y, T74K, T78R
VL: B2 VL
B4: 6G9 IgG (antibody, V domains shown)
VH: EVQLQQSGDDLVKPGASVKMSCKASGYTFTSYWMHWVKQRPGQGLEWIGYINPSTGYTEYNQKFKDKATLTADKSSSTAYMQLSSLTSEDSAVYYCARGGNYVDYWGQGTTLTVSS
VL: EIVLTQSPAIMSASPGEKVTISCSASSSVSYMYWYQQKPGSSPKPWIYRTSNLASGVPARFSGSGSGTSYSLTISSMEAEDAATYYCQQWSSNPYTFGGGTKLEIKR
B5: Hu6G7.1 IgG (antibody, V domains shown)
VH: QVQLVQSGAEVKKPGASVKVSCKASDYSFTDYNIYWVRQTPGQGLEWIGYIDPYNGGTSYNQKFKGRATLTVDKSISTAYMELSRLRSDDTAVYYCALYGYDPDYIDYWGQGTTLTVSS
VL: DIVLTQSPASMAVSPGQRVTITCSASSSVSYLHWFQQKPGQSPKLWIYSTSNLASGVPARFSGSGSGTDYTLTINPMEAEDTATYYCQQRSSYPYTFGQGTKLEIKR
B6: Hu6G9.1 IgG (antibody, V domains shown)
VH: QVQLVQSGAEVKKPGASVKMSCKASGYTFTSYWMHWVRQAPGQGLEWVGYINPSTGYTEYNQKFKDRATLTADKSTSTAYMELRSLRSDDTAVYYCARGGNYVDYWGQGTTLTVSS
VL: DIQMTQSPSTLSASVGERVTITCRASHGISSWLAWYQQKPGKAPKRLIYAVSTLQTGVPSRFSDSGSGTDLTLTINSLQPEDFATYYCQDLNSYPLSFGGGTKVEIKR
B7: Hu6G11.1 IgG (antibody, V domains shown)
VH: QVQLVQSGAEVAKPGASVKMSCKASGYTFTSYWMHWVRQAPGQGLEWIGYINPSTGYTEYNQKFKDRATLTADKSKSTAYMELSSLRSEDTAVYYCARGYFSFAYWGQGTLVTVSS
VL: DIVMTQSPSSLSASVRDRVTITCQASHDIKNFLNWFQQKPGKAPKLLVYDASYLQVGVPSRFSASGYGTEFTLTISSLQPEDFATYYCQQANSFPRTFGQGTKVEIKR
B8: Hu6G11.2 IgG (antibody, V domains shown)
VH: B7 VH
VL: B7 VL with Y53H
B9: hu6G11 IgG (antibody, V domains shown)
VH: B7 VH with K76T
VL: B7 VL with Y53N
B10: 6G7.1 IgG (antibody, V domains shown)
VH: DVQLQESGPELVKPGASVKVSCKASDYSFTDYNIYWVKQSHGKSLEWIGYIDPYNGGTSYNQKFKGKATLTVDKSSSTAFMYLNSLTSEDSAVYYCALYGYDPDYIDYWGQGTTLTVSS
VL: QIVLTQSPAIMSASPGEKVTITCSASSSVSYLHWFQQKPGTSPKLWIYSTSNLASGVPARFSGSGSGTSYSLTISRMEAEDAATYYCQQRSSYPYTFGGGTKLEIKA
B11: hu6G9B10 scFv (scFv)
scFv: QVQLVQSGAEVKKPGASVKMSCKASGYTFTSYWMHWVRQAPGQGLEWIGYINPSTGYTEYNQKFKDRATLTADKSTSTAYMELRSLRSDDTAVYYCARGGNYVDYWGQGTTLTVSSVDLKSGGSTSDSGKPGSGEGSSGSARDIQMTQSPSTLSASVGERVTITCRASQDISSWLAWYQQKPGKAPKRLIYAVSTLQTGVPSRFSGSGSGTDLTLTINSLQPEDFATYYCQDLNSYPLTFGGGTKVEVK
B12: Hu6G10 scFv (scFv, V domains shown)
VH: QVQLVQSGAEVKKPGATVKISCKASGYSFTGYFMHWVRQAPGKGLEWIGRINPYNGDIIYNQNFKDRATLTVDKSTSTAYMELSSLRSEDTAVYYCASLFGLYYFDYWGQGTTLTVSS
VL: DVVMTQSPSSVSASVGDRVTITCRASQRISNHLNWYQQKPGKAPKRLIYAASSLESGVPSRFSGSGSGTEFTLTISSLQPEDFATYFCLQHNSYPYTFGQGTKVEIKR
B13: Hu6G11.1 scFv (scFv, V domains shown)
VH: B7 VH
VL: B7 VL
B14: Hu6G11.2 scFv (scFv, V domains shown)
VH: B7 VH
VL: B7 VL with Y53H
B15: Hu6G11.3 scFv (scFv, V domains shown)
VH: B7 VH with K76T
VL: EIVLTQSPSTLSASIGDRVTITCRASEGIYHWLAWYQQKPGKAPKLLIYKASSLASGAPSRFSGSGSGTDFSLTISSLQPEDSATYFCQQAHSFPPTFGGGTKVDIKR

What follows are binders tested against T1, active BoNT/G holotoxin (Clostridium botulinum, UniProt Q60393 2-1297) (assay: KinExA, IgG).
T1 sequence: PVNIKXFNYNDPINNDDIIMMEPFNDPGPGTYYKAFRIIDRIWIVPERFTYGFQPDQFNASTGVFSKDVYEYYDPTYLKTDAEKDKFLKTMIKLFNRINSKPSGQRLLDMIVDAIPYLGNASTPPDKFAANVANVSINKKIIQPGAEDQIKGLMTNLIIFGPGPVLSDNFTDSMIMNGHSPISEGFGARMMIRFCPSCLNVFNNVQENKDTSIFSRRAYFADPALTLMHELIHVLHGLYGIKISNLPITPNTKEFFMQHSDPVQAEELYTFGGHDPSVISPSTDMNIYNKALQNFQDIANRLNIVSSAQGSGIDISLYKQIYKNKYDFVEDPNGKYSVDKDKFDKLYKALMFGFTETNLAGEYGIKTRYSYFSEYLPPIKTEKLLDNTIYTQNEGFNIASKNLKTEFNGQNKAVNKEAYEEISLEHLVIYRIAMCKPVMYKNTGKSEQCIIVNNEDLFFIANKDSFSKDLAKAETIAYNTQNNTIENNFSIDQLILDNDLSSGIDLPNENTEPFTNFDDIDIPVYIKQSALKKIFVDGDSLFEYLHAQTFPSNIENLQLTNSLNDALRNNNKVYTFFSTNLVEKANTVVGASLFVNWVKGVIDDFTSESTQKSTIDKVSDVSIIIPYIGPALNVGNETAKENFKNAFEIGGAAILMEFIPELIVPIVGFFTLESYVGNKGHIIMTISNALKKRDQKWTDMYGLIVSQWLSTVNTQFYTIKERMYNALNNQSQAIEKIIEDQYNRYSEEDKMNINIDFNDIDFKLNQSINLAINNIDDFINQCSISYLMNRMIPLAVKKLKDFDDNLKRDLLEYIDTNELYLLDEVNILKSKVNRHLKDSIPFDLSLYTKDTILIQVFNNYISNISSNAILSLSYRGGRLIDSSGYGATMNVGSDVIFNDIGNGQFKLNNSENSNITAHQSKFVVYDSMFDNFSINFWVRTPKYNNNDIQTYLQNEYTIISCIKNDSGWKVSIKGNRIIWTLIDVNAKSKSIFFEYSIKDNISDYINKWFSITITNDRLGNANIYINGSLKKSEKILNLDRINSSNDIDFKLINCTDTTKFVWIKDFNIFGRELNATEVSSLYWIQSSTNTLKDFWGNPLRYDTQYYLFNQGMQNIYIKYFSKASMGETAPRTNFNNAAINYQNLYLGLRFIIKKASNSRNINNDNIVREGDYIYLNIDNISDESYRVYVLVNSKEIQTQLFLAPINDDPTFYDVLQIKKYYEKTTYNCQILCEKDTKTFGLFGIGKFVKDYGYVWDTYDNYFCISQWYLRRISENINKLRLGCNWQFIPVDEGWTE

| Binder | Kd [nM] |
| --- | --- |
| B1 | 0.33 |
| B2 | 8.37 |
| B3 | 0.0422 |
| B4 | 1.59 |
| B5 | 1.19 |
| B6 | 0.0275 |
| B7 | 0.101 |
| B8 | 0.048 |
| B9 | 0.531 |
| B10 | 0.0266 |

Each binder was assayed against inactive BoNT/G (BoNT/Gi) (Clostridium botulinum) (UniProt Q60393) (assay: flow cytometry, scFv on yeast).

| Binder | Kd [nM] | fold improvement in affinity over hu6G9 WT [fold] |
| --- | --- | --- |
| B11 | 2.35 | 9 |

The binders below were run against T2, inactive BoNT/G (BoNT/Gi) (Clostridium botulinum, UniProt Q60393 1-1297) (assay: FACS, scFv on yeast).
T2 sequence: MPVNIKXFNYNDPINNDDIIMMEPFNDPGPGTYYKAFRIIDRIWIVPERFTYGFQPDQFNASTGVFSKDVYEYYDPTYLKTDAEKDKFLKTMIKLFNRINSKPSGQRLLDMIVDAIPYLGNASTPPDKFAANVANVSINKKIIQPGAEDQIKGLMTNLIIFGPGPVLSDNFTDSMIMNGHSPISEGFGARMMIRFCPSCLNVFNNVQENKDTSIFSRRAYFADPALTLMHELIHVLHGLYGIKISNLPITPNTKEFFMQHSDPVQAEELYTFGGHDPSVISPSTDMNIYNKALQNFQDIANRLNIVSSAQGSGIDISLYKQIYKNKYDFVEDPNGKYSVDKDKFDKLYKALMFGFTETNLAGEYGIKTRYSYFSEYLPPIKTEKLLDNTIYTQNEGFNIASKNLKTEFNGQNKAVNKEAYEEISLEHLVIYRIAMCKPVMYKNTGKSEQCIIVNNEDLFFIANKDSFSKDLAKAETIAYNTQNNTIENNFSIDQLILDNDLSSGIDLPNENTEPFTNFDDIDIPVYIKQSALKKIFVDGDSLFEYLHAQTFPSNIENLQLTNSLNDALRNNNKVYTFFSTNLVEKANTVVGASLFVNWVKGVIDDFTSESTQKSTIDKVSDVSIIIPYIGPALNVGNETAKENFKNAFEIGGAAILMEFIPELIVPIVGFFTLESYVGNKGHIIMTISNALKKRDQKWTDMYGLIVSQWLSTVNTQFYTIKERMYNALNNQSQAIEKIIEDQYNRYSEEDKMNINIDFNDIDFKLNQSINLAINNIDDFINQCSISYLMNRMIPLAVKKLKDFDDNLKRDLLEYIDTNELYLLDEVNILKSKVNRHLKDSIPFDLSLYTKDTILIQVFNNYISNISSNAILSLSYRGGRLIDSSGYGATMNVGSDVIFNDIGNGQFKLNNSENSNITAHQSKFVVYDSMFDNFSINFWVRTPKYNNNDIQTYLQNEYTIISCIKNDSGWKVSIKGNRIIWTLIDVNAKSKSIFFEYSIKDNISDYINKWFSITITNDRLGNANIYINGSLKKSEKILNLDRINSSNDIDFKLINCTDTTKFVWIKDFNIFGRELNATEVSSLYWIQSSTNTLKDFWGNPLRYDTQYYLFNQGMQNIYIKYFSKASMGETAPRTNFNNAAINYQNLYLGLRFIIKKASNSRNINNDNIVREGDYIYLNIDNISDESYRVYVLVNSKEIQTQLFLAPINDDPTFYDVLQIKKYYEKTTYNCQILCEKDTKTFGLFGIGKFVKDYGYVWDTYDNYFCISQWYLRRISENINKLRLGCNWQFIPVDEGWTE

| Binder | Kd [nM] |
| --- | --- |
| B12 | 0.52 |
| B13 | 0.32 |
| B14 | 0.56 |
| B15 | 0.32 |
